Measurements from publication PMC10629212, “Active Site Loop Engineering Abolishes Water Capture in Hydroxylating Sesquiterpene Synthases” (ACS Catalysis, 2023).
Substitutions are numbered along the chain they refer to. Names may count otherwise.

Assays:
[1] = substrate: CC(C)=CCC/C(C)=C/CC/C(C)=C/CO[P@@](=O)(O)OP(=O)(O)O; assay: steady-state kinetics of sesquiterpene formation (details in Supporting Information); assay type: biochemical, Streptomyces coelicolor; details: Mg2+-dependent enzyme; conditions in Supporting Information
Source text: steady-state kinetics of sesquiterpene formation (details in Supporting Information) on Gd11olS (germacradiene-11-ol synthase)

[2] = substrate: CC(C)=CCC/C(C)=C/CC/C(C)=C/CO[P@@](=O)(O)OP(=O)(O)O; assay: as above; assay type: biochemical, Pogostemon cablin; details: Mg2+-dependent enzyme; conditions in Supporting Information
Source text: steady-state kinetics of sesquiterpene formation (details in Supporting Information) on PTS (patchoulol synthase)

B1: Gd11olS (germacradiene-11-ol synthase) (Streptomyces coelicolor A3(2)) (protein)
chain: MTQQPFQLPHFYLPHPARLNPHLDEARAHSTTWAREMGMLEGSGVWEQSDLEAHDYGLLCAYTHPDCDGPALSLITDWYVWVFFFDDHFLEKYKRSQDRLAGKAHLDRLPLFMPLDDAAGMPEPRNPVEAGLADLWTRTVPAMSADWRRRFAVATEHLLNESMWELSNINEGRVANPVEYIEMRRKVGGAPWSAGLVEYATAEVPAAVAGTRPLRVLMETFSDAVHLRNDLFSYQREVEDEGELSNGVLVLETFFGCTTQEAADLVNDVLTSRLHQFEHTAFTEVPAVALEKGLTPLEVAAVGAYTKGLQDWQSGGHEWHMRSSRYMNKGERPLAGWQ
notes: likely N-terminal germacradienol synthase domain of the bifunctional geosmin synthase (as in PDB 5DZ2); recombinant purified
[1]
  Km: 0.45 ± 0.08 µM

B2: Gd11olS (germacradiene-11-ol synthase) (Streptomyces coelicolor A3(2); D240G/E239R/E241S/V238R) (protein)
chain: B1 chain with V238R, E239R, D240G, E241S
notes: as for B1
[1]
  Km: 6.02 ± 1.25 µM

B3: PTS (patchoulol synthase) (Pogostemon cablin; E461S/K458R/K459R/R460G) (protein)
chain: MELYAQSVGVGAASRPLANFHPCVWGDKFIVYNPQSCQAGEREEAEELKVELKRELKEASDNYMRQLKMVDAIQRLGIDYLFVEDVDEALKNLFEMFDAFCKNNHDMHATALSFRLLRQHGYRVSCEVFEKFKDGKDGFKVPNEDGAVAVLEFFEATHLRVHGEDVLDNAFDFTRNYLESVYATLNDPTAKQVHNALNEFSFRRGLPRVEARKYISIYEQYASHHKGLLKLAKLDFNLVQALHRRELSEDSRWWKTLQVPTKLSFVRDRLVESYFWASGSYFEPNYSVARMILAKGLAVLSLMDDVYDAYGTFEELQMFTDAIERWDASCLDKLPDYMKIVYKALLDVFEEVDEELIKLGAPYRAYYGKEAMKYAARAYMEEAQWREQKHKPTTKEYMKLATKTCGYITLIILSCLGVEEGIVTKEAFDWVFSRPPFIEATLIIARLVNDITGHEFERRGSHVRTAVECYMEEHKVGKQEVVSEFYNQMESAWKDINEGFLRPVEFPIPLLYLILNSVRTLEVIYKEGDSYTHVGPAMQNIIKQLYLHPVPY
notes: recombinant purified; construct details only in Supporting Information
[2]
  Km: 1.54 ± 0.16 µM

B4: PTS (patchoulol synthase) (Pogostemon cablin; Y525F) (protein)
chain: B3 chain with R458K, R459K, G460R, S461E, Y525F
notes: as for B3
[2]
  Km: 4.8 ± 1.26 µM

B5: PTS (patchoulol synthase) (Pogostemon cablin) (protein)
chain: B3 chain with R458K, R459K, G460R, S461E
notes: as for B3
[2]
  Km: 0.68 ± 0.14 µM

B6: PTS (patchoulol synthase) (Pogostemon cablin; C405A) (protein)
chain: B3 chain with C405A, R458K, R459K, G460R, S461E
notes: as for B3
[2]
  Km: 0.67 ± 0.09 µM

B7: PTS (patchoulol synthase) (Pogostemon cablin; Y525A) (protein)
chain: B3 chain with R458K, R459K, G460R, S461E, Y525A
notes: as for B3
[2]
  Km: 5.27 ± 1.22 µM

B8: PTS (patchoulol synthase) (Pogostemon cablin; Y531F) (protein)
chain: B3 chain with R458K, R459K, G460R, S461E, Y531F
notes: as for B3
[2]
  Km: 0.37 ± 0.09 µM
